Data as given in patent US9101618B2, “Method for treating and/or preventing neurodegenerative disease by adiponectin receptor agonist” (TOKYO METROPOLITAN INSTITUTE OF MEDICAL SCIENCE, priority 2011, dated 2015).

Legend:
[1] = test system: B103 neuroblastoma cells (α (alpha)S); test: Immunoprecipitation with anti-α-synuclein antibody, detection of phosphorylated tau (Ser 202); format: cell-based, rat; details: 1 μg/mL, 24 hours, NP40 soluble fraction
Procedure: Immunoprecipitation was performed by standard procedures known to those skilled in the art. Briefly, the B103 neuroblastoma cells (α (alpha)S) were inoculated on a 10 cm dish, and were cultured to a state of about 80-90% confluence. The cells were then washed with PBS, followed by being cultured in a test medium (adiponectin-added group) prepared by adding recombinant human adiponectin (1 μg/mL, trimer, PROSPEC) to a serum-free medium. As a control, there was used a control medium (adiponectin non-added group) prepared by adding thereto PBS instead of recombinant human adiponectin. After being cultured for 24 hours, the cells were then lysed with a NP40 lysis solution (1% IGEPAL CA630 (Sigma-Aldrich Japan Inc), 150 mM NaCl, 50 mM Tris-HCl (pH 8.0), a protease inhibitor (NACALAI TESQUE, INC.)). Supernatants were collected after performing centrifugation at 100,000×g for 30 min. The supernatants thus collected were used as NP40 soluble fractions when performing immunoprecipitation. Immunoprecipitation was performed using Immunoprecipitation Starter Pack (GE Healthcare Japan Corporation) in accordance with a manual provided by the manufacturer and vender. […]

AMPK = test: Adiponectin addition (2): signal transduction, phospho-AMPK western blotting; format: cell-based, rat; details: 1 μg/mL, 0, 10 and 30 min
Procedure: The B103 neuroblastoma cells (α (alpha)S) and the B103 neuroblastoma cells (vector) were inoculated on a 5 cm dish and cultured to a state of about 80-90% confluence. Later, the aforementioned cells were washed with PBS, and then cultured in a serum-free medium for four hours. After washing with PBS, the cells were then cultured in a test medium (adiponectin-added group) prepared by adding recombinant human adiponectin (1_μg/mL, trimer, PROSPEC) to a serum-free medium. As a control, there was used a control medium (adiponectin non-added group) prepared by adding thereto PBS instead of recombinant human adiponectin. A culture time was 0, 10 and 30 min when evaluating signal transduction, 0, 1 and 2 hour(s) when evaluating tau phosphorylation. The cells collected were lysed with a cell lysis solution (1% TritonX-100, 1% Nonidet P-40, 50 mM HEPES, 150 mM NaCl, 10% glycerol, 1.5 mM MgCl2, 1 mM EGTA, 100_mM sodium fluoride, a protease inhibitor (NACALAI TESQUE, INC.)). Supernatants were collected after performing centrifugation at 100,000×g for 30 min, and were used as surfactant soluble fractions when performing western blotting. Here, western blotting was performed in accordance with the procedures described in example 1. […]

B1: adiponectin: recombinant human adiponectin (trimer, PROSPEC) added to serum-free medium at 1 μg/mL (protein, UniProt Q15848 19-244, looked up)
Adiponectin: ETTTQGPGVLLPLPKGACTGWMAGIPGHPGHNGAPGRDGRDGTPGEKGEKGDPGLIGPKGDIGETGVPGAEGPRGFPGIQGRKGEPGEGAYVYRSAFSVGLETYVTIPNMPIRFTKIFYNQQNHYDGSTGKFHCNIPGLYYFAYHITVYMKDVKVSLFKKDKAMLFTYDQYQENNVDQASGSVLLHLEVGDQVWLQVYGEGERNGLYADNDNDSTFTGFLLYHDTN
coprecipitation of phosphorylated tau with α-synuclein [1]: did not coprecipitate | phosphorylation of AMPK (AMPK): promoted
